The test system of the data set is tumor site where the cholecystokinin B receptor is overexpressed. Also noted: species or system nude mice. Particulars: mouse, in vivo. The protocol: Establishment of tumor animal model: Five-to six-week-old male experimental nude mice are purchased from the National Laboratory Animal Center (NLAC, TAIWAN) and bred in the animal facility. All animal experiment procedures are performed in accordance with the protocols approved by Institutional Animal Care and Use Committee (IACUC, TAIWAN). The experimental mice are kept at a temperature of 21-23° C., and a 12-hour light-dark cycle are used as the basis for the animal's physiological cycle. A431-CCK2R^(−) and A431-CCK2R^(+) cells (2×10^6 cells) are inoculated in the left and right hind limbs of the mice. After the tumors growing to 200-300 mm^3, the radioactive labeled complexes Lu-177-D1, Lu-177-D2, and Lu-177-D3 are used as radiotherapy drugs and start the treatments. The cholecystokinin B receptor-targeted radiotherapy drugs […], Lu-177-D2, and Lu-177-D3 are administrated to the mice respectively by tail vein injection. After different time periods of administration, such as 4, 24, and 48 hours, the coronal sections of three tumor mice are obtained (Refer to FIG. 3). By showing the comparison of NanoSPECT and CT fusion images at different time points, the accumulation of these radiotherapy drugs in the tumor tissue can be observed. Then measure and record the tumor size twice a week. […]

SMILES strings stand for the structures. Square brackets hold non-standard residues; d marks the D form. Peptide text beside a SMILES is read from it. * marks the point of attachment. DOTA = O=C(O)CN1CCN(CC(=O)O)CCN(CC(=O)*)CCN(CC(=O)O)CC1; Butanoyl(4-(4-MePh)) = Cc1ccc(CCCC(=O)*)cc1; 4Amb = NCc1ccc(C(=O)O)cc1; Nle = CCCC[C@H](N)C(=O)O; Ahx = NCCCCCC(=O)O

As to `CCCC[C@H](NC(=O)[C@H](Cc1c[nH]c2ccccc12)NC(=O)CNC(=O)[C@H](Cc1ccc(O)cc1)NC(=O)[C@H](C)NC(=O)[C@H](CCC(=O)O)NC(=O)[C@H](CCC(=O)O)NC(=O)[C@H](CCC(=O)O)NC(=O)[C@H](CCC(=O)O)NC(=O)[C@H](CCC(=O)O)NC(=O)[C@H](CCC(=O)O)NC(=O)c1ccc(CNC(=O)[C@H](CCCCNC(=O)CCCc2ccc(C)cc2)NC(=O)CN2CCN(CC(=O)O)CCN(CC(=O)O)CCN(CC(=O)O)CC2)cc1)C(=O)N[C@@H](CC(=O)O)C(=O)N[C@@H](Cc1ccccc1)C(N)=O` [Lu-177-D3, metal not drawn] ({DOTA}-K(Butanoyl(4-(4-MePh)))[4Amb]EEEEEEAYGW[Nle]DF-NH2), the “duration of drug accumulation in the tumor site” value is reported as “at least 48 hours”. Regarding `CCCC[C@H](NC(=O)[C@H](Cc1c[nH]c2ccccc12)NC(=O)CNC(=O)[C@H](Cc1ccc(O)cc1)NC(=O)[C@H](C)NC(=O)[C@H](CCC(=O)O)NC(=O)[C@H](CCC(=O)O)NC(=O)[C@H](CCC(=O)O)NC(=O)[C@H](CCC(=O)O)NC(=O)[C@H](CCC(=O)O)NC(=O)[C@H](CCC(=O)O)NC(=O)CCCCCNC(=O)[C@H](CCCCNC(=O)CCCc1ccc(C)cc1)NC(=O)CN1CCN(CC(=O)O)CCN(CC(=O)O)CCN(CC(=O)O)CC1)C(=O)N[C@@H](CC(=O)O)C(=O)N[C@@H](Cc1ccccc1)C(N)=O` [Lu-177-D1, metal not drawn] ({DOTA}-K(Butanoyl(4-(4-MePh)))[Ahx]EEEEEEAYGW[Nle]DF-NH2), the “duration of drug accumulation in the tumor site” value is reported as “at least 48 hours”.

(Values after patent publication US20250135046A1, “CHOLECYSTOKININ B RECEPTOR-TARGETED COMPLEX AND A CONTRAST AGENT THEREOF” (National Atomic Research Institute, priority 2023, published 2025).)
